The values that follow come from publication PMC5627596.

Assay [1] has as its target heterodimeric Fcab Janus448 (one VEGF-binding 448 chain, one Fc-wt chain) (human). Description: ITC; 200 µM VEGF titrated into 40 µM Janus448 or JanusCT6 in the cell; PBS (pH 7.4), 25°C; one-set-of-sites model. On the technique in general: Isothermal titration calorimetry measures the heat released or taken up as one component is titrated into another.
Assay [2] concerns the target heterodimeric Fcab JanusCT6 (one VEGF-binding CT6 chain, one Fc-wt chain) (human). The assay is described as above.

As for “vascular endothelial growth factor (VEGF-A), truncated version, residues 14-108 (domain or fragment)”, in assay [1], the Kd (commonly the free concentration of one partner at which half of the binding sites on the other are occupied at equilibrium, for simple one-to-one binding) was 26 nM; the dH was -25 kcal/mol; the stoichiometry N (as a rule, a count of units in the complex or per binding partner) worked out at 0.5. In assay [2], this substance displayed a dissociation constant (Kd) of 4 nM, a dH of -34 kcal/mol and a stoichiometry N of 0.5.
